Source: the supplement of paper PMC11246515
± gives the standard deviation of the averaged measurements.

Experiment: total protein half-life in vivo (active degradation + dilution); higher = more stable protein
[1] = E. coli NCM3722 delta-clpP delta-lon delta-hslV, growth: N-lim chemostat, doubling time 6 h
[2] = E. coli NCM3722 delta-clpP, growth: N-lim chemostat, doubling time 6 h
[3] = E. coli NCM3722 delta-lon, growth: N-lim chemostat, doubling time 6 h
[4] = E. coli NCM3722 delta-smpB, growth: N-lim chemostat, doubling time 6 h
[5] = wild type E. coli NCM3722, growth: C-lim chemostat, doubling time 3 h
[6] = wild type E. coli NCM3722, growth: C-lim chemostat, doubling time 12 h
[7] = wild type E. coli NCM3722, growth: N-lim chemostat, doubling time 6 h
[8] = wild type E. coli NCM3722, growth: N-lim chemostat, doubling time 12 h
[9] = wild type E. coli NCM3722, growth: P-lim chemostat, doubling time 6 h
[10] = wild type E. coli NCM3722, growth: P-lim chemostat, doubling time 12 h
[11] = E. coli NCM3722 delta-hslV, growth: N-lim chemostat, doubling time 6 h
[12] = wild type E. coli NCM3722, growth: C-lim chemostat, doubling time 6 h

Sequence	total protein half-life in vivo [1] [h]	total protein half-life in vivo [2] [h]	total protein half-life in vivo [3] [h]	total protein half-life in vivo [4] [h]	total protein half-life in vivo [5] [h]	total protein half-life in vivo [6] [h]	total protein half-life in vivo [7] [h]	total protein half-life in vivo [8] [h]	total protein half-life in vivo [9] [h]	total protein half-life in vivo [10] [h]	total protein half-life in vivo [11] [h]	total protein half-life in vivo [12] [h]
MNSLQILSFVGFTLLVAVITWWKVRKTDTGSQQGYFLAGRSLKAPVIAASLMLTNLSTEQLVGLSGQAYKSGMSVMGWEVTSAVTLIFLALIFLPRYLKRGIATIPDFLEERYDKTTRIIIDFCFLIATGVCFLPIVLYSGALALNSLFHVGESLQISHGAAIWLLVILLGLAGILYAVIGGLRAMAVADSINGIGLVIGGLMVPVFGLIAMGKGSFMQGIEQLTTVHAEKLNSIGGPTDPLPIGAAFTGLILVNTFYWCTNQGIVQRTLASKSLAEGQKGALLTAVLKMLDPLVLVLPGLIAFHLYQDLPKADMAYPTLVNNVLPVPMVGFFGAVLFGAVISTFNGFLNSASTLFSMGIYRRIINQNAEPQQLVTVGRKFGFFIAIVSVLVAPWIANAPQGLYSWMKQLNGIYNVPLVTIIIMGFFFPRIPALAAKVAMGIGIISYITINYLVKFDFHFLYVLACTFCINVVVMLVIGFIKPRATPFTFKDAFAVDMKPWKNVKIASIGILFAMIGVYAGLAEFGGYGTRWLAMISYFIAAVVIVYLIFDSWRHRHDPAVTFTPDGKDSL	3.19											
MNTISSLETTDLPAAYHIEQRAHAFPWSEKTFASNQGERYLNFQLTQNGKMAAFAITQVVLDEATLFNIAVDPDYQRQGLGRALLEHLIDELEKRGVATLWLEVRASNAAAIALYESLGFNEATIRRNYYPTTDGREDAIIMALPISM [P0A944]	5.64	4.51	4.5 ± 0.79	3.85	> 4	15.9	3.845 ± 0.034	6.18	4.53	8.18		
MNTIVFVEDDAEVGSLIAAYLAKHDMQVTVEPRGDQAEETILRENPDLVLLDIMLPGKDGMTICRDLRAKWSGPIVLLTSLDSDMNHILALEMGACDYILKTTPPAVLLARLRLHLRQNEQATLTKGLQETSLTPYKALHFGTLTIDPINRVVTLANTEISLSTADFELLWELATHAGQIMDRDALLKNLRGVSYDGLDRSVDVAISRLRKKLLDNAAEPYRIKTVRNKGYLFAPHAWE	5.2 ± 1.1	4.29 ± 0.89	3.95 ± 0.079	3.58 ± 0.22	3.05 ± 0.78	7.3 ± 0.64	3.662 ± 0.028	5.27 ± 0.083	4.82 ± 0.53	7.92 ± 0.17	3.1 ± 0.46	5.03 ± 0.43
MNTNVFRLLLLGSLFSLSACVQQSEVRQMKHSVSTLNQEMTQLNQETVKITQQNRLNAKSSSGVYLLPGAKTPARLESQIGTLRMSLVNITPDADGTTLTLRIQGESNDPLPAFSGTVEYGQIQGTIDNFQEINVQNQLINAPASVLAPSDVDIPLQLKGISVDQLGFVRIHDIQPVMQ	6.62 ± 0.76		6.77 ± 0.76	6.22 ± 0.65		11.3	5.64 ± 1.1	13.9	6.02 ± 0.69	12.7 ± 1.5		5.54 ± 0.6
MNTPAQLSLPLYLPDDETFASFWPGDNSSLLAALQNVLRQEHSGYIYLWAREGAGRSHLLHAACAELSQRGDAVGYVPLDKRTWFVPEVLDGMEHLSLVCIDNIECIAGDELWEMAIFDLYNRILESGKTRLLITGDRPPRQLNLGLPDLASRLDWGQIYKLQPLSDEDKLQALQLRARLRGFELPEDVGRFLLKRLDREMRTLFMTLDQLDRASITAQRKLTIPFVKEILKL	5.11 ± 0.35	4.947 ± 0.022	4.21 ± 0.21	4.29 ± 0.12	2.74 ± 0.07	9.48 ± 1.9	4.404 ± 0.034	7.28 ± 0.61	5.14 ± 0.064	10.6 ± 0.12	5.42 ± 0.81	5.7 ± 1.3
MNTRQLLSVGIDIGTTTTQVIFSRLELVNRAAVSQVPRYEFIKREISWQSPVFFTPVDKQGGLKEAELKTLILEQYHAAGIEPESVDSGAIIITGESAKTRNARPAVMALSQSLGDFVVASAGPHLESVIAGHGAGAQTLSEQRLCRVLNIDIGGGTANYALFDAGKISGTACLNVGGRLLETDSHGRVVYAHKPGQMIVDECFGAGTDARSLTGAQLVQVTRRMAELIVEVIDGTLSPLAQALMQTGLLPAGVTPEIITLSGGVGECYRHQPADPFCFADIGPLLATALHDHPRLREMNVQFPAQTVRATVIGAGAHTLSLSGSTIWLEGVQLPLRNLPVAIPIDETDLVGAWQQALIQLDLDPKTDAYVLALPASLPVRYAAVLTVINALVDFVARFPNPHPLLVVAGQDFGKALGMLLRPQLQQLPLAVIDEVIVRAGDYIDIGTPLFGGSVVPVTVKSLAFPS	5.67											
MNVNSSSNRGEAILAALKTQFPGAVLDEERQTPEQVTITVKINLLPDVVQYLYYQHDGWLPVLFGNDERTLNGHYAVYYALSMEGAEKCWIVVKALVDADSREFPSVTPRVPAAVWGEREIRDMYGLIPVGLPDQRRLVLPDDWPEDMHPLRKDAMDYRLRPEPTTDSETYPFINEGNSDARVIPVGPLHITSDEPGHFRLFVDGEQIVDADYRLFYVHRGMEKLAETRMGYNEVTFLSDRVCGICGFAHSVAYTNSVENALGIEVPQRAHTIRSILLEVERLHSHLLNLGLSCHFVGFDTGFMQFFRVREKSMTMAELLIGSRKTYGLNLIGGVRRDILKEQRLQTLKLVREMRADVSELVEMLLATPNMEQRTQGIGILDRQIARDLRFDHPYADYGNIPKTLFTFTGGDVFSRVMVRVKETFDSLAMLEFALDNMPDTPLLTEGFSYKPHAFALGFVEAPRGEDVHWSMLGDNQKLFRWRCRAATYANWPVLRYMLRGNTVSDAPLIIGSLDPCYSCTDRVTLVDVRKRQSKTVPYKEIERYGIDRNRSPLK	7.09						5.27				5.63	
MNYELLTTENAPVKMWTKGVPVEADARQQLINTAKMPFIFKHIAVMPDVHLGKGSTIGSVIPTKGAIIPAAVGVDIGCGMNALRTALTAEDLPENLAELRQAIETAVPHGRTTGRCKRDKGAWENPPVNVDAKWAELEAGYQWLTQKYPRFLNTNNYKHLGTLGTGNHFIEICLDESDQVWIMLHSGSRGIGNAIGTYFIDLAQKEMQETLETLPSRDLAYFMEGTEYFDDYLKAVAWAQLFASLNRDAMMENVVTALQSITQKTVRQPQTLAMEEINCHHNYVQKEQHFGEEIYVTRKGAVSARAGQYGIIPGSMGAKSFIVRGLGNEESFCSCSHGAGRVMSRTKAKKLFSVEDQIRATAHVECRKDAEVIDEIPMAYKDIDAVMAAQSDLVEVIYTLRQVVCVKG	5.37 ± 0.74		2.04 ± 0.29	1.46 ± 0.066	1.6 ± 0.19	3.19 ± 0.052	1.73	1.67 ± 0.49	1.98 ± 0.61	3.92 ± 0.64	1.46 ± 0.41	2.78 ± 0.54
MNYRIIPVTAFSQNCSLIWCEQTRLAALVDPGGDAEKIKQEVDDSGLTLMQILLTHGHLDHVGAAAELAQHYGVPVFGPEKEDEFWLQGLPAQSRMFGLEECQPLTPDRWLNEGDTISIGNVTLQVLHCPGHTPGHVVFFDDRAKLLISGDVIFKGGVGRSDFPRGDHNQLISSIKDKLLPLGDDVIFIPGHGPLSTLGYERLHNPFLQDEMPVW	4.63 ± 0.21	5.7 ± 1.5	4.23 ± 0.31	3.17 ± 0.34		9.88 ± 0.89	3.73 ± 0.55	4.36 ± 0.79	5.05 ± 0.39	9.46 ± 1.1	3.09 ± 0.2	6.22 ± 1.2
MNYSHDNWSAILAHIGKPEELDTSARNAGALTRRREIRDAATLLRLGLAYGPGGMSLREVTAWAQLHDVATLSDVALLKRLRNAADWFGILAAQTLAVRAAVTGCTSGKRLRLVDGTAISAPGGGSAEWRLHMGYDPHTCQFTDFELTDSRDAERLDRFAQTADEIRIADRGFGSRPECIRSLAFGEADYIVRVHWRGLRWLTAEGMRFDMMGFLRGLDCGKNGETTVMIGNSGNKKAGAPFPARLIAVSLPPEKALISKTRLLSENRRKGRVVQAETLEAAGHVLLLTSLPEDEYSAEQVADCYRLRWQIELAFKRLKSLLHLDALRAKEPELAKAWIFANLLAAFLIDDIIQPSLDFPPRSAGSEKKN [P0CF93]	5.49 ± 0.06	0.94	1.85 ± 0.024	0.81	0.861 ± 0.23	2.64 ± 0.44	1.62 ± 0.41	2.3 ± 0.26	0.485	11.9	1.34 ± 0.12	1.69 ± 0.64
MNYSLKQLKVFVTVAQEKSFSRAGERIGLSQSAVSHSVKELENHTGVRLLDRTTREVVLTDAGQQLALRLERLLDELNSTLRDTGRMGQQLSGKVRVAASQTISAHLIPQCIAESHRRYPDIQFVLHDRPQQWVMESIRQGDVDFGIVIDPGPVGDLQCEAILSEPFFLLCHRDSALAVEDYVPWQALQGAKLVLQDYASGSRPLIDAALARNGIQANIVQEIGHPATLFPMVAAGIGISILPALALPLPEGSPLVVKRITPVVERQLMLVRRKNRSLSTAAEALWDVVRDQGNALMAGREGDPLYQI [P0ACR7]	6.06 ± 0.61	4.84 ± 0.076			2.84	12.5 ± 1.6	4.85 ± 0.15	9.2 ± 0.89	3.88	6.14 ± 1.9	5.19 ± 0.28	
MPAENIVEVHHLKKSVGQGEHELSILTGVELVVKRGETIALVGESGSGKSTLLAILAGLDDGSSGEVSLVGQPLHNMDEEARAKLRAKHVGFVFQSFMLIPTLNALENVELPALLRGESSAESRNGAKALLEQLGLGKRLDHLPAQLSGGEQQRVALARAFNGRPDVLFADEPTGNLDRQTGDKIADLLFSLNREHGTTLIMVTHDLQLAARCDRCLRLVNGQLQEEA [P0A9T8]	6.26	6.68		5.39 ± 0.17	3.23 ± 0.07	11.2 ± 1.8	7.11	11.4 ± 0.56	5.46 ± 0.41	11.6	5.9	5.51 ± 0.64
